Measurements: patent US20210395323A1 (UNIVERSIT T STUTTGART, published 2021)

Columns and labels:
[1] = target: T1, human TNFR2-Fc fusion protein (human, UniProt P20333 23-257); assay: ELISA, huTNFR2-Fc coated at 1 µg/ml, bound protein detected with anti-TNF F6C5
T1 construct: also called huTNFR2-Fc; huTNFR2
T1 sequence (looked up): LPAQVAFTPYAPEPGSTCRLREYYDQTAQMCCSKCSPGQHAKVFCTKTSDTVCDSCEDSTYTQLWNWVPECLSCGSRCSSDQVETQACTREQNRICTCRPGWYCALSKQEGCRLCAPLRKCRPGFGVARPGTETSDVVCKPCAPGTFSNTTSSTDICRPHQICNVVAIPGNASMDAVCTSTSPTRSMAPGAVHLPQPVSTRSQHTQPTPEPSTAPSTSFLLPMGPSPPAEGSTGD
Method: ELISA plates (Greiner, Frickenhausen, Germany) were coated with huTNFR1-Fc, mTNFR1-Fc, huTNFR2-Fc or mTNFR2-Fc fusion proteins at 1 μg/ml in PBS and incubated at 4° C. overnight. Residual binding sites were blocked with 2% skim milk powder in PBS at RT for 2 hours. ScTNFR2 and the complexes were diluted in 2% skim milk powder in PBS and added at concentrations in the range of 10⁻³ to 10 nM and incubated for 1 hour at RT. Between each step, non-bound proteins were removed by washing 4 times with 0.005% Tween-20 in PBS.
Bound proteins were detected with mouse monoclonal antibodies to TNF (clone F6C5; 1 μg/ml; incubation for 1 hour at RT) and HRP-conjugated anti-mouse IgG antibodies (diluted 1:10000; incubation for 1 hour at RT), followed by incubation with tetramethylbenzidine (TMB) substrate solution. Reaction was stopped by addition of 1 M H₂SO₄ and the absorbance at 450 nm was determined with a Multiskan FC absorbance reader (Thermo Scientific, Karlsruhe, Germany) and data were analyzed using the software Microsoft Excel and GraphPad Prism 4 (GraphPad, La Jolla, Calif.) (FIG. 5). In Table 3, the calculated EC₅₀ values for the binding of TNF, scTNFR2 and the complexes to immobilized huTNFR2 and mTNFR2 based on the ELISA assay are summarized.

[2] = target: T2, TNFR2 on human cells (Kym-1 cells; human CD3+ T cells) (human, UniProt P20333 23-461); assay: cell-based or functional assay
T2 sequence (looked up): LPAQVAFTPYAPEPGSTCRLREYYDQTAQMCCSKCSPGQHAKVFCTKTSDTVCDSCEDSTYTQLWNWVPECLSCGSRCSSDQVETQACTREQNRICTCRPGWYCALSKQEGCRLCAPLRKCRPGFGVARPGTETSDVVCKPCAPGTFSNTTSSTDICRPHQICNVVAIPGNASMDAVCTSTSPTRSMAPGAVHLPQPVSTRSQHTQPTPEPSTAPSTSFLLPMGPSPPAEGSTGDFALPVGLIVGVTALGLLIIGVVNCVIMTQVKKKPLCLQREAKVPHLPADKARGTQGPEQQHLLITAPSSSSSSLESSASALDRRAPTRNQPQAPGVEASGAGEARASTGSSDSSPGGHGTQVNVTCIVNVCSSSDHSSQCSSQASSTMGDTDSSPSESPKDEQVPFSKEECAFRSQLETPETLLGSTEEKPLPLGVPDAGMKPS

[3] = target: T2, TNFR2 on human cells (Kym-1 cells; …); assay: cell-based or functional assay; remark: listed apart in the source

B1: EHD2-scTNFR2 (human) (ligand)
chain: DFTPPTVKILQSSCDGGGHFPPTIQLLCLVSGYTPGTINITWLEDGQVMDVDLSTASTTQEGELASTQSELTLSQKHWLSDRTYTCQVTYQGHTFEDSTKKCADSNGGGSGGGSGGGSGGGSGGGSGGSEFLASSRTPSDKPVAHVVANPQAEGQLQWLNRRANALLANGVELRDNQLVVPSEGLYLIYSQVLFKGQGCPSTHVLLTHTISRIAVSYQTKVNLLSAIKSPCQRETPEGAEAKPWYEPIYLGGVFQLEKGDRLSAEINRPDYLNFRESGQVYFGIIALGGGGSSSRTPSDKPVAHVVANPQAEGQLQWLNRRANALLANGVELRDNQLVVPSEGLYLIYSQVLFKGQGCPSTHVLLTHTISRIAVSYQTKVNLLSAIKSPCQRETPEGAEAKPWYEPIYLGGVFQLEKGDRLSAEINRPDYLNFRESGQVYFGIIALGGGGSSSRTPSDKPVAHVVANPQAEGQLQWLNRRANALLANGVELRDNQLVVPSEGLYLIYSQVLFKGQGCPSTHVLLTHTISRIAVSYQTKVNLLSAIKSPCQRETPEGAEAKPWYEPIYLGGVFQLEKGDRLSAEINRPDYLNFRESGQVYFGIIAL
notes: Hexavalent dimer of two subunits; also called hexavalent EHD2-scTNFR2
- EC50 [1]: 0.508 nM
- EC50 values (nM) of cell death induction using Kym-1 cells [2]: 0.0126 nM
- EC50 of Kym-1 cell viability (crystal violet assay after 16 h) [3]: 37 µM
